We go through one protein from article PMC9600267, “The Antibacterial Type VII Secretion System of Bacillus subtilis: Structure and Interactions of the Pseudokinase YukC/EssB” (mBio, 2022).

This data set concerns the molecule itself. The data set is described as follows: crystal structure; hanging-drop vapor diffusion at 4°C; 20 mg/mL YukC413 in 25 mM HEPES pH 8, 175 mM NaCl, 0.04% Cymal-6 with 0.1 M MgCl2, 50 mM HEPES pH 7.5, 15% PEG 2000; molecular replacement.

B1: YukC413 (YukC lacking the last 38 residues), Strep-tagged (pRSF/yukC413.strep) (domain or fragment, Bacillus subtilis 168, UniProt P71070 1-413, looked up)
chain: MSGEQKSYLENQLEAVAEKTDAGYTFTFQREKIKLLDGLEANVIKDINPFFHKEIDVTDDEVIITIQPPSSYKAFRFMKAKDKKSKWQFAYQLVQAVQQHNLSRLNLIVAPENIVFDKGLTPYFLHYGVKESIPPYERDEERVWQELKAAAALAVDGAFAFEDYLKFNETLTFSAEAKAILDAESYDDLLELIQTHIDELEAKAKTYIHIPRKKWNIQRYIGLGLIVLLVPALIYSMYALFFAQPKHQAIVDSNRAFLNKQYSEVISTLSKYDAESLPESVQYQLATSYVEVENLGSAKTKNIENNLVTLQSDPQHFLYWIDYGRGEYKEAISIGRKLEYNDYIYFALAKYKQQLLSEDTNDEDIQKELDSVNSELEKAQKERQENKQSNSETSLVDTSEEQTQTDEEKQAEE
notes: YukC (EssB) of Bacillus subtilis 168 lacking the last 38 residues at the C terminus; In the model 384 (chain A) and 377 (chain B) residues are assigned; source: E. coli BL21(DE3); purified from Cymal-6-solubilized membranes (StrepTrap, Superdex 200) for crystallization; coexpressed with YukE.his and solubilized with Triton X-100 for copurification
B1: the binding result was “binds”.
